B1: GMA-2105 F(ab): fragment antigen-binding fragment of GMA-2105 (antibody, V domains shown)
VH: EVKLEESGGGLVQPGGSMKLSCAASGFTFSDAWMDWVRQSPEKGLEWVAEIRTKANNHATYYAESVKGRFTISRDDSKSSVYLQMNSLRAEDTGIYYCTNVYYGNNDVKDYWGQGTSVTVSPAS
VL: DIVMTQSQKFMSTSVGDRVSVTCKASQNVDIYVAWYQQKPGQSPKALIYSASYRFSGVPDRFTGSGSGTDFTLSISNVQSEDLAEYFCQQYNNYPYTFGGGTKLEIKRADAAPTVSIFPPSSEGRI
B2: chimeric GMA-2105 (antibody, V domains shown)
VH: B1 VH
VL: B1 VL
B3: GMA-2105: inhibitory mouse anti-staphylocoagulase monoclonal antibody raised against peptide […]; VH SEQ ID NO 6, VL SEQ ID NO 8 (protein)
chain 1: B1 VH
chain 2: B1 VL

Key:
[1] = test system: GMA-2105; test: Solid phase competitive inhibition ELISA with variant staphylocoagulase peptides; format: binding; conditions: peptide incubated with GMA-2105 in solution overnight at 4 degrees C
Excerpt: There are reported strain specific sequence differences at residue positions 8 and 9 of staphylocoagulase (SEQ ID. No.: 2). […] Wantabe, et al., Genetic Diversity of Staphylocoagulase Genes (coa): Insight into the evolution of variable chromosomal virulence factors in Staphylococcus aureus. PLoS ONE 2009; 4(5): 1-11, incorporated herein by reference in its entirety. […] 9 (“Mutated Peptide Ala 8”), position 9 of SEQ ID NO. 9 (“Mutated Peptide Ala 9”), and position 8 and 9 of SEQ ID NO.: 9 (“Mutated Peptide Ala 8 & 9”) (see FIG. 13). We measured the binding of each synthetic peptide (Mutated Peptide Ala 8, Mutated Peptide Ala 9, and Mutated Peptide Ala 8 & 9) to GMA-2105 in solution.
We tested binding of Mutated Peptide Ala 8, Mutated Peptide Ala 9, and Mutated Peptide Ala 8 & 9 to GMA-2105 in a solid phase competitive inhibition assay. GMA-2105 was incubated with increasing concentrations of each of Mutated Peptide Ala 8, Mutated Peptide Ala 9, and Mutated Peptide Ala 8 & 9 (referred to hereafter as “GMA-2105—Mutated Peptide samples”) in solution overnight at 4 degrees C. The incubation was followed by transfer of the GMA-2105—Mutated Peptide samples to wells coated with the non-mutated peptide, […] (SEQ ID. No.: 9) and blocked with 0.1% BSA PBS. After a 30-minute incubation, wells were washed with PBS containing 0.05% TWEEN 20, followed by addition of goat anti-mouse secondary antibody conjugated to horseradish peroxidase. Substrate ortho-phenylenediamine conversion to product was measured at 490 nm using a spectrophotometer. The negative control as was a purified irrelevant synthetic peptide.

[2] = test system: staphylocoagulase; test: Western blot detection of staphylocoagulase in cultured bacteria supernatants; format: binding; conditions: supernatants of S. aureus strains COL and MW2 (MRSA)
Excerpt: Lanes A, B, and C contain concentrated (10×) supernatants from identically cultured bacteria. Lane A: S. saprophyticus (coagulase negative bacterium control); Lane B: S. aureus strain COL (MRSA); Lane C: S. aureus strain MW2 (MRSA); Lane D: media blank; Lane E: staphylocoagulase peptide conjugated to ovalbumin (SEQ ID NO.: 9).

[3] = molecular target: T1, staphylocoagulase peptide SC(1-10) […] (SEQ ID NO: 9) (Staphylococcus aureus, UniProt P17855); test: Solid-phase ELISA on staphylocoagulase peptide; format: binding, S. aureus
T1 construct: made in house; host or cells: chemical synthesis
Procedure: Two additional 50 μg injections (peptide-KLH conjugate in incomplete Freunds adjuvant) were given on days 61 and 111. A serum sample from each mouse was collected on Day 122 and the antibody titer measured by solid-phase Enzyme Linked Immunosorbant Assay (ELISA) using the staphylocoagulase and/or vWbp peptide conjugated to ovalbumin coated on 96-well ELISA plates at 2 ug/ml. Uncoated areas of the wells were blocked with albumin from bovine serum (BSA). The wells were then incubated with dilutions of the mouse serum to test whether the serum contained antibodies to the staphylocoagulase and/or vWbp peptide. Bound antibodies were detected with anti-mouse IgG secondary antibody conjugated to horseradish peroxidase. The plates were then incubated with o-phenylenediamine (OPD) substrate which undergoes a color change in the presence of HRP the intensity of which can be measured using absorption at 490 nm wavelength in a microplate reader. […]
Purified chimeric GMA-2105 and murine GMA-2105 antibody were tested against staphylocoagulase peptide […] […] Antibody-antigen complex was detected using a goat anti-mouse secondary antibody conjugated to horseradish peroxidase or goat anti-human secondary antibody conjugated to horseradish peroxidase. Substrate ortho-phenylene diamine conversion to product was measured at 490 nm using a spectrophotometer

[4] = molecular target: T2, BODIPY-labeled staphylocoagulase SC (S7C) (1-325) (Staphylococcus aureus, UniProt P17855, S33C); test: Equilibrium binding of BODIPY-labeled staphylocoagulase, fluorescence titration in solution; set-up: species or system S. aureus
T2 construct: BODIPY fluorophore (chemical label)
Procedure: In solution, the antibody bound Ser 7 to Cys mutant of SC(1-325). Binding studies were done using the BODIPY-labeled staphylocoagulase SC (S7C) (1-325) (SEQ ID NO.: 2, positions 1-325 with Cys at position 7). The change of fluorescence upon antibody binding is measured as a function of the unlabeled ligand concentration and fitting the data to the quadratic binding equation gives the dissociation constant (KD), and the stoichiometry (n). Panizzi, et al., Fibrinogen substrate recognition by staphylocoagulase-(pro)thrombin complexes, J. Biol. Chem. 2006; 281:118-95.
Direct binding of BODIPY-SC(S7C) at 27 nM (●) and 130 nM (∘) probe titrated with GMA-2105 caused fluorescence increase, whereas unlabeled SC(1-246) (triangles) displaced BODIPY-SC(S7C) labeled staphylocoagulase from binding the antibody. Simultaneous fit of all datasets provide the Kd for the unmodified competitor to the antibody.
Concentrations were: BODIPY-staphylocoagulase (1-325) at 27 nM (●) and 130 nM (∘) titrated with GMA-2105 and unlabeled staphylocoagulase (1-246)(residues 1-246 of SEQ ID No. 2).
In FIG. 29, BODIPY®-labeled staphylocoagulase fragment (1-325) at 27 nM (●) and 130 nM (∘) titrated with chimeric GMA-2105 in solution in the presence of unlabeled staphylocoagulase fragment (1-246) (▴).

[5] = molecular target: SC(1-246)●prothrombin^3Q (Staphylococcus aureus, UniProt P17855); test: Inhibition of prothrombin^3Q activation by SC(1-246), S2238 hydrolysis; format: biochemical, S. aureus; conditions: read-out: affinity of inhibition of prothrombin^3Q activation by SC(1-246); prothrombin 1 nM, SC(1-246) 5.6 nM and 28 nM

| Molecule | inhibition of GMA-2105 binding to wells coated with […] [1] | binding to staphylocoagulase peptide in ELISA [3] | also measured |
| --- | --- | --- | --- |
| Mutated Peptide Ala 8: synthetic peptide with alanine substitution at position 8 of SEQ ID NO. 9 (IVTKDYSAES) | inhibited binding of antibody | – | – |
| Mutated Peptide Ala 8 & 9: synthetic peptide with alanine substitutions at positions 8 and 9 of SEQ ID NO. 9 (IVTKDYSAAS) | inhibited binding of antibody | – | – |
| Mutated Peptide Ala 9: synthetic peptide with alanine substitution at position 9 of SEQ ID NO. 9 (IVTKDYSKAS) | inhibited binding of antibody | – | – |
| B1 | – | capable of binding | binding of staphylocoagulase in cultured bacteria, Western blot [2]: bind staphylocoagulase |
| B2 | – | binding | binding characteristics compared with murine GMA-2105 ([4]; FIG. 30): essentially identical; stoichiometry ([4]; chimeric antibody): 2 mol staphylocoagulase/mol chimeric antibody |
| B3 | – | – | Kd [5]: 0.9 nM |
